Data from PMC4280530, “Uniform Orientation of Biotinylated Nanobody as an Affinity Binder for Detection of Bacillus thuringiensis (Bt) Cry1Ac Toxin” (Toxins, 2014).

B1: anti-Cry1Ac nanobody Nb61 (VHH)
VHH: QVQLQESGGGSVQAGGSLRLSCEASENTYNSVYMAWFRQAPEKEREGVAVLSTGGGRTYYTDSVKGRFTISRDNAKNMVYLQMNSLKPDDTAMYYCAATYTGDSYGPSLYYLTPGRYEYWGQGTQVTVSS
notes: VHH from an immunised dromedary, in pMECS; HA tag is known from the detection with anti-HA tag antibody; also called Cry1Ac Nb61; source: E. coli WK6, periplasm, purified (Ni-NTA / His-Select IMAC); periplasmic extract in PE-ELISA
B2: anti-Cry1Ac nanobody Nb44 (VHH)
VHH: QVQLQESGGGSVQAGGSLRLSCATSGLTYSARITWFRQAPEKEREGVATFSTGSGSTGYADSVKGRFTISQDNAKNTLYLQMNNLKPEDTAMYYCAADTSTSWRDIVLVARYKYWGQGTQVTVSS
notes: VHH from an immunised dromedary, in pMECS; HA tag is known from the detection with anti-HA tag antibody; also called Cry1Ac Nb44; source: E. coli WK6, periplasm, purified (Ni-NTA / His-Select IMAC); periplasmic extract in PE-ELISA

Target: T1, Cry1F toxin (Bacillus thuringiensis, strain not …, UniProt Q03746)
T1 construct: Cry1F toxin of Bacillus thuringiensis, member of the Cry1 family; Commercial toxin
T1 sequence (Q03746 whole entry): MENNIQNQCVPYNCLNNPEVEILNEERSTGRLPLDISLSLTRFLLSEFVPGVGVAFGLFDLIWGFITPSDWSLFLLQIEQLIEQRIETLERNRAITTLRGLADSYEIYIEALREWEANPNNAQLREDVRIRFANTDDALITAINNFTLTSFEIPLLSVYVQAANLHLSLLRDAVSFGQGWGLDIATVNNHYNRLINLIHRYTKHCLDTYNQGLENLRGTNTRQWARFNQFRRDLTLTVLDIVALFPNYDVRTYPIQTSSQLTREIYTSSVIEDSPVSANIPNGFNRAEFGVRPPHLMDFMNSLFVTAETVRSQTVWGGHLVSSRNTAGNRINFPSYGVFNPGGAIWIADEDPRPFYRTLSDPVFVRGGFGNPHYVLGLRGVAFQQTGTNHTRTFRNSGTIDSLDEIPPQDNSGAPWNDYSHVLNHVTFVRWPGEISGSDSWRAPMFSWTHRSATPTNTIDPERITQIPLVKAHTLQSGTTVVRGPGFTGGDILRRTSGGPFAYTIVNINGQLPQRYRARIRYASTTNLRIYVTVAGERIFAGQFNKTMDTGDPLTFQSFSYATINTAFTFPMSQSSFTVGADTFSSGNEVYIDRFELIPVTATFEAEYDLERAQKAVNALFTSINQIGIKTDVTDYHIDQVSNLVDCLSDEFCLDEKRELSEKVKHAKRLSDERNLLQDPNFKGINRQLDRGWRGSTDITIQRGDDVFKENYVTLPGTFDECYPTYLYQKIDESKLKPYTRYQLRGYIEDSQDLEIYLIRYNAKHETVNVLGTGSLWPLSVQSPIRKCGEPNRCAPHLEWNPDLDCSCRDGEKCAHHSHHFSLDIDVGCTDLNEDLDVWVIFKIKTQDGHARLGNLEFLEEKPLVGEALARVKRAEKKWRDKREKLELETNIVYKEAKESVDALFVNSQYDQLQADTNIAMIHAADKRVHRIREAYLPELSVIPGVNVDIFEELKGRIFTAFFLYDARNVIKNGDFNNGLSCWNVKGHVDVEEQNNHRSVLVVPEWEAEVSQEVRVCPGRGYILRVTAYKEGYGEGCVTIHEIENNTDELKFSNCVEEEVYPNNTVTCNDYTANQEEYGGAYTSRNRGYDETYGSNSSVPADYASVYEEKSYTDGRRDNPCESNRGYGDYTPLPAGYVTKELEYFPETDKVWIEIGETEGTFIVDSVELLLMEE
Experiment: ELISA
Conditions: both partners purified

Binder	binding result
B1	no binding (tested: 10 μg·mL^−1)
B2	no binding (tested: 10 μg·mL^−1)
